Measurements published in patent US20040132130.

T1: Ac-Ala-Ala-Pro-Thr(Man)-Pro-Val-Ala-Ala-Pro-NH2
T1 chain: AAPTPVAAP


Molecular target: T1, Ac-Ala-Ala-Pro-Thr(Man)-Pro-Val-Ala-Ala- …

Row | Protein | OMGnT activity (pmol/hr/mg protein) (pmol/hr/mg protein) | Km value | OMGnT relative activity (%)
1 | His-Xpress-sGnT-I (protein) SVSALDGDPASLTREVIRLAQDAEVELERQRGLLQQIGDALSSQRGRVPTAAPPAQPRVPVTPAPAVIPILVIACDRSTVRRCLDKLLHYRPSAELFPIIVSQDCGHEETAQAIASYGSAVTHIRQPDLSSIAVPPDHRKFQGYYKIARHYRWALGQVFRQFRFPAAVVVEDDLEVAPDFFEYFRATYPLLKADPSLWCVSAWNDNGKEQMVDASRPELLYRTDFFPGLGWLLLAELWAELEPKWPKAFWDDWMRRPEQRQGRACIRPEISRTMTFGRKGVSHGQFFDQHLKFIKLNQQFVHFTQLDLSYLQREAYDRDFLARVYGAPQLQVEKVRTNDRKELGEVRVQYTGRDSFKAFAKALGVMDDLKSGVPRAGYRGIVTFQFRGRRVHLAPPLTWEGYDPSWN | 0.4 | – | –
2 | His-Xpress-sOMGnT(S) (protein) SSAEEAECHWADTELNRRRRRFCSKVEGYGSVCSCKDPTPIEFSPDPLPDNKVLNVPVAVIAGNRPNYLYRMLRSLLSAQGVSPQMITVFIDGYYEEPMDVVALFGLRGIQHTPISIKNARVSQHYKASLTATFNLFPEAKFAVVLEEDLDIAVDFFSFLSQSIHLLEEDDSLYCISAWNDQGYEHTAEDPALLYRVETMPGLGWVLRRSLYKEELEPKWPTPEKLWDWDMWMRMPEQRRGRECIIPDVSRSYHFGIVGLNMNGYFHEAYFKKHKFNTVPGVQLRNVDSLKKEAYEVEVHRLLSEAEVLDHSKNPCEDSFLPDTEGHTYVAFIRMEKDDDFTTWTQLAKCLHIWDLDVRGNHRGLWRLFRKKNHFLVVGVPASPYSVKKPPSVTPIFLEPPPKEEGAPGAPEQT | 20 | 1360 µM | 100%
